Columns and labels:
Assay type in all cases: biochemical
[1] = SaSSy enzyme assay with FPP, GC-MS product analysis
Procedure: Enzyme assays for both recombinant isoenzyme proteins P143 and S143 were done in duplicate using GC vials as per O'Maille, P. E., et al. (“A single-vial analytical and quantitative gas chromatography-mass spectrometry assay for terpene synthases,” Anal. Biochem. 335:210-217 (2004)). For each assay, 20 μL of protein (8 mg/mL) was added to 450 μL of reaction buffer containing 25 mM HEPES, 10% glycerol, 5 mM DTT and 10 mM of Mg^2+. 20 μL of substrates FPP and GPP (˜1 mg/mL) were added and the mixture gently shaken. Final enzyme concentration was 0.3 mg/mL. Vials were overlaid with 500 μL of pentane to trap volatile products and incubated at 30° C. for 2 h.
The product mixture of the SaSSy enzyme was analysed on an Agilent 6890 GC with a 5973 MSD using helium as carrier gas. Peak identification was done using an HP5-MS capillary column (30 m, 0.25 mm ID, […]). Injector temperature was 240° C., detector temperature was set at 250° C., injection volume was 1 μL and column flow rate was 1 mL/min. Oven temperature program was as follows: oven program was held for 1 min at 40° C., then ramped at 7.5° C./min to 250° C. and held. All mass spectra were detected at 70 eV in multiple ion scan mode.
The identities of products from SaSSy incubations were confirmed by comparison of mass spectra retention times to authentic sandalwood oil in the NIST 2005 library, see publications by Adams, R. P. (“Identification of essential oil components by gas chromatography/mass spectrometry,” Allured Publishing Corporation, Carol Stream, Ill. (1995)) and MassFinder (www.massfinder.com).
The mass spectrum of the four compounds produced by the SaSSy enzyme (shown in FIG. 2A) are the same as those of natural β-santalene produced in sandalwood trees (see Adams (1995), cited above, for comparison profiles).

[2] = SaSSy enzyme assay with GPP, GC-MS product analysis; conditions: GPP as substrate, Mn^2+
Procedure: Enzyme assays for both recombinant isoenzyme proteins P143 and S143 were done in duplicate using GC vials as per O'Maille, P. E., et al. (“A single-vial analytical and quantitative gas chromatography-mass spectrometry assay for terpene synthases,” Anal. Biochem. 335:210-217 (2004)). […] 20 μL of substrates FPP and GPP (˜1 mg/mL) were added and the mixture gently shaken. Final enzyme concentration was 0.3 mg/mL. Vials were overlaid with 500 μL of pentane to trap volatile products and incubated at 30° C. for 2 h.
The product mixture of the SaSSy enzyme was analysed on an Agilent 6890 GC with a 5973 MSD using helium as carrier gas. Peak identification was done using an HP5-MS capillary column (30 m, 0.25 mm ID, […]). Injector temperature was 240° C., detector temperature was set at 250° C., injection volume was 1 μL and column flow rate was 1 mL/min. Oven temperature program was as follows: oven program was held for 1 min at 40° C., then ramped at 7.5° C./min to 250° C. and held. All mass spectra were detected at 70 eV in multiple ion scan mode. […]

[3] = GC-FID determination of reaction products of terpene synthases from FPP with magnesium or manganese
Procedure: Enzyme assays for all recombinant proteins were done in triplicate using the GC vial method described by O'Maille et al. (Anal. Biochem. 335:[…] (2004). For enzyme assays where only product identification was needed, 10 μg of protein was used in a final volume of 500 μL of reaction buffer (25 mM HEPES, 10% glycerol, 5 mM DTT and 10 mM of either Mg^2+ or Mn^2+. Substrates (FPP and GPP) were added to a final reaction concentration of 100 μM. Vials were overlaid with 500 μL of hexane to trap volatile products and incubated at 30° C. for 2 h. Mixtures were vortexed for 1 min to extract all volatiles and the vials were centrifuged to separate the organic layer.
Product mixtures were analysed by GC-MS in scan mode for product identification. A standard containing the three santalenes and α-trans-bergamotene was prepared by flash chromatography of 2 mL of neat S. album oil over silica and eluted in hexane. A final yield of 25 mg was resuspended in EtOAc and purity was confirmed by GC-FID with conditions described below. All mass spectra were compared to the NIST 2005 library and the literature. Retention indices were determined for all compounds using an n-alkane standard and compared to the literature (R. P. Adams, “Identification of essential oil components by gas chromatography/mass spectrometry,” Allured Publishing Corporation, Carol Stream, Ill. (1995)).
(§1) GC-FID was performed on a Shimadzu GC2010 with a 30 m 0.25 mm ID, 0.25 μm film DB-WAX column with He as the carrier gas. Splitless injection (2 μL) was used for all analyses. Conditions were as follows: injector 200° C., detector 250° C., column flow rate 1 mL/min. Oven program: 40° C. for 3 min, then 8° C./min to 180° C., held 5 min, then 10° C./min to 220° C., held 10 min. Needle height was adjusted to only draw from the upper organic layer of all sample vials. GC-MS was performed on a Shimadzu GC2010 with the same DB-WAX column and using He as the carrier gas. Conditions were as follows: injector 200° C., MS interface 240° C., ion source 200° C. Oven program: 40° C. for 3 min, then 8° C./min to 180° C., held 5 min, then 10° C./min to 220° C., held 10 min. Solvent cut time was set to 5 min. For product identification, total ion monitoring was used, scanning from m/z 45 to m/z 300. For kinetic assays, single ion monitoring of the sesquiterpene base ions m/z 91, 93 and 94 were used. Likewise monoterpene base ions (m/z 69, 71 and 93) were monitored. An internal standard (isobutyl benzene, 30 μM) was added to the hexane used to overlay each reaction. Detector response factors were calculated based on the santalene standard prepared earlier and used to determine the product concentrations for kinetic analysis.

[4] = Steady-state enzyme kinetic assays
Procedure: For determination of steady-state enzyme kinetic constants, conditions were as described previously except the enzyme concentration was kept at 10 nM. Substrate concentrations ranged from 1 uM to 100 uM, and reactions were incubated at 30° C. for exactly 5 mins. Reactions were quenched by the addition of 500 μL 0.5 M EDTA, pH 8.0 and vortexed as above.
as §1

[5] = GC-FID determination of reaction products of terpene synthases from FPP with magnesium or manganese; remark: listed apart in the source

B1: SaSSy: santalene synthase (terpene synthase) from Santalum album, gene SEQ ID NO:1, protein SEQ ID NO:2 (protein, listed as Santalum album)
chain: MDSSTATAMTAPFIDPTDHVNLKTDTDASENRRMGNYKPSIWNYDFLQSLATHHNIVEERHLKLAEKLKGQVKFMFGAPMEPLAKLELVDVVQRLGLNHLFETEIKEALFSIYKDGSNGWWFGHLHATSLRFRLLRQCGLFIPQDVFKTFQNKTGEFDMKLCDNVKGLLSLYEASYLGWKGENILDEAKAFTTKCLKSAWENISEKWLAKRVKHALALPLHWRVPRIEARWFIEAYEQEANMNPTLLKLAKLDFNMVQSIHQKEIGELARWWVTTGLDKLAFARNNLLQSYMWSCAIASDPKFKLARETIVEIGSVLTVVDDGYDVYGSIDELDLYTSSVERWSCVEIDKLPNTLKLIFMSMFNKTNEVGLRVQHERGYNSIPTFIKAWVEQCKSYQKEARWFHGGHTPPLEEYSLNGLVSIGFPLLLITGYVAIAENEAALDKVHPLPDLLHYSSLLSRLINDIGTSPDEMARGDNLKSIHCYMNETGASEEVAREHIKGVIEENWKILNQCCFDQSQFQEPFITFNLNSVRGSHFFYEFGDGFGVTDSWTKVDMKSVLIDPIPLGEE
modifications: SaSSy Protein
epi-β-santalene in product mixture ([1]; FPP, Mg^2+ buffer): 4.3% | α-santalene in product mixture ([1]; FPP, Mg^2+ buffer): 34.7% | α-trans-bergamotene in product mixture ([1]; FPP, Mg^2+ buffer): 11.1% | β-santalene in product mixture ([1]; FPP, Mg^2+ buffer): 41.3% | Relative % composition in oil produced by enzyme: E-α-bergamotol ([1]; four major components only): 12.1% | Relative % composition in oil produced by enzyme: epi-β-santalol ([1]; four major components only): 4.7% | Relative % composition in oil produced by enzyme: α-santalol ([1]; four major components only): 38.0% | Relative % composition in oil produced by enzyme: β-santalol ([1]; four major components only): 45.2% | products formed [2]: a mixture of α-pinene, camphene, limonene and α-terpinolene, along with other monoterpene products | E-β-farnesene among reaction products (GC-FID) ([3]; FPP Mg, mean): 1.7 | Z-β-farnesene among reaction products (GC-FID) ([3]; FPP Mg, mean): 0.8 | epi-β-santalene among reaction products (GC-FID) ([3]; FPP Mg, mean): 4.7 | α-E-bergamotene among reaction products (GC-FID) ([3]; FPP Mg, mean): 16.0 | α-santalene among reaction products (GC-FID) ([3]; FPP Mg, mean): 45.3 | β-santalene among reaction products (GC-FID) ([3]; FPP Mg, mean): 31.5 | E-β-farnesene among reaction products (GC-FID) ([3]; FPP Mg, replicate 1): 1.7 | Z-β-farnesene among reaction products (GC-FID) ([3]; FPP Mg, replicate 1): 0.7 | epi-β-santalene among reaction products (GC-FID) ([3]; FPP Mg, replicate 1): 4.6 | α-E-bergamotene among reaction products (GC-FID) ([3]; FPP Mg, replicate 1): 16.3 | α-santalene among reaction products (GC-FID) ([3]; FPP Mg, replicate 1): 46.4 | β-santalene among reaction products (GC-FID) ([3]; FPP Mg, replicate 1): 30.4 | E-β-farnesene among reaction products (GC-FID) ([3]; FPP Mg, replicate 2): 1.7 | Z-β-farnesene among reaction products (GC-FID) ([3]; FPP Mg, replicate 2): 1.0 | epi-β-santalene among reaction products (GC-FID) ([3]; FPP Mg, replicate 2): 5.1 | α-E-bergamotene among reaction products (GC-FID) ([3]; FPP Mg, replicate 2): 15.3 | α-santalene among reaction products (GC-FID) ([3]; FPP Mg, replicate 2): 43.8 | β-santalene among reaction products (GC-FID) ([3]; FPP Mg, replicate 2): 33.1 | E-β-farnesene among reaction products (GC-FID) ([3]; FPP Mg, replicate 3): 1.7 | Z-β-farnesene among reaction products (GC-FID) ([3]; FPP Mg, replicate 3): 0.7 | epi-β-santalene among reaction products (GC-FID) ([3]; FPP Mg, replicate 3): 4.3 | α-E-bergamotene among reaction products (GC-FID) ([3]; FPP Mg, replicate 3): 16.4 | α-santalene among reaction products (GC-FID) ([3]; FPP Mg, replicate 3): 45.6 | β-santalene among reaction products (GC-FID) ([3]; FPP Mg, replicate 3): 31.2 | E-β-farnesene among reaction products (GC-FID) ([3]; FPP Mn, mean): 7.6 | Z-β-farnesene among reaction products (GC-FID) ([3]; FPP Mn, mean): 0.5 | epi-β-santalene among reaction products (GC-FID) ([3]; FPP Mn, mean): 0.7 | α-E-bergamotene among reaction products (GC-FID) ([3]; FPP Mn, mean): 74.7 | α-santalene among reaction products (GC-FID) ([3]; FPP Mn, mean): 9.8 | β-santalene among reaction products (GC-FID) ([3]; FPP Mn, mean): 6.6 | E-β-farnesene among reaction products (GC-FID) ([3]; FPP Mn, replicate 1): 7.4 | Z-β-farnesene among reaction products (GC-FID) ([3]; FPP Mn, replicate 1): 0.6 | epi-β-santalene among reaction products (GC-FID) ([3]; FPP Mn, replicate 1): 0.9 | α-E-bergamotene among reaction products (GC-FID) ([3]; FPP Mn, replicate 1): 75.7 | α-santalene among reaction products (GC-FID) ([3]; FPP Mn, replicate 1): 9.5 | β-santalene among reaction products (GC-FID) ([3]; FPP Mn, replicate 1): 6.0 | E-β-farnesene among reaction products (GC-FID) ([3]; FPP Mn, replicate 2): 8.0 | Z-β-farnesene among reaction products (GC-FID) ([3]; FPP Mn, replicate 2): 0.5 | epi-β-santalene among reaction products (GC-FID) ([3]; FPP Mn, replicate 2): 0.8 | α-E-bergamotene among reaction products (GC-FID) ([3]; FPP Mn, replicate 2): 73.4 | α-santalene among reaction products (GC-FID) ([3]; FPP Mn, replicate 2): 9.9 | β-santalene among reaction products (GC-FID) ([3]; FPP Mn, replicate 2): 7.3 | E-β-farnesene among reaction products (GC-FID) ([3]; FPP Mn, replicate 3): 7.5 | Z-β-farnesene among reaction products (GC-FID) ([3]; FPP Mn, replicate 3): 0.5 | epi-β-santalene among reaction products (GC-FID) ([3]; FPP Mn, replicate 3): 0.5 | α-E-bergamotene among reaction products (GC-FID) ([3]; FPP Mn, replicate 3): 74.9 | α-santalene among reaction products (GC-FID) ([3]; FPP Mn, replicate 3): 10.1 | β-santalene among reaction products (GC-FID) ([3]; FPP Mn, replicate 3): 6.4 | Relative % composition in oil produced by enzyme: E-α-bergamotol ([3]; GC-FID): 16.0% | Relative % composition in oil produced by enzyme: β-santalol ([3]; GC-FID): 31.5% | Kcat ([4]; FPP): 0.0112 s⁻¹ | Vmax ([4]; assays using FPP): 0.42 µM/min | Relative % composition in oil produced by enzyme: epi-β-santalol [5]: 4.7% | Relative % composition in oil produced by enzyme: α-santalol [5]: 45.3%

Reference: patent publication US9260728B2, “Terpene synthases from Santalum” (UNIVERSITY OF BRITISH COLUMBIA, priority 2009, dated 2016)
